This note sets out measurements from article PMC7354924, “Repulsive guidance molecules lock growth differentiation factor 5 in an inhibitory complex” (Proceedings of the National Academy of Sciences of the …, 2020).

The target in experiment [1] is T1, growth differentiation factor 5 (GDF5), wild type (UniProt P43026 382-501).
T1 construct: GDF5, disulfide-linked dimer; also called wild-type GDF5
T1 sequence (looked up): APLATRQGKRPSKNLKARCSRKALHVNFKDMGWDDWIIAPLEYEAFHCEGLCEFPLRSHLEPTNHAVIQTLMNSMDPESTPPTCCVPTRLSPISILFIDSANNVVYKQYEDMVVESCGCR
Description: SPR; Biacore T200, 25 °C; GDF5 and BMP2 covalently linked to a CM5 chip by primary amine coupling, RGMs as analytes; 0.5 M NaCl, 20 mM Hepes pH 7.4, 0.05% Tween 20; equilibrium binding, 1:1 Langmuir isotherm; apparent affinity. To be noted: both partners purified. (In general: SPR reads the build-up and loss of mass on a sensor chip optically.)

The target in experiment [2] is T1, growth differentiation factor 5 (GDF5), …. Description: cell-based or functional assay.
Experiment [3] concerns the target T2, bone morphogenetic protein 2 (BMP2) (UniProt P12643 283-396). The experiment in a line: cell-based or functional assay.
In experiment [4] the target is T3, growth differentiation factor 5 (GDF5), wild type (human, UniProt P43026 28-501).
T3 construct: GDF5, human, UniProt P43026; Disulfide-linked dimer without glycans; also called BMP14; CDMP1
T3 sequence (looked up): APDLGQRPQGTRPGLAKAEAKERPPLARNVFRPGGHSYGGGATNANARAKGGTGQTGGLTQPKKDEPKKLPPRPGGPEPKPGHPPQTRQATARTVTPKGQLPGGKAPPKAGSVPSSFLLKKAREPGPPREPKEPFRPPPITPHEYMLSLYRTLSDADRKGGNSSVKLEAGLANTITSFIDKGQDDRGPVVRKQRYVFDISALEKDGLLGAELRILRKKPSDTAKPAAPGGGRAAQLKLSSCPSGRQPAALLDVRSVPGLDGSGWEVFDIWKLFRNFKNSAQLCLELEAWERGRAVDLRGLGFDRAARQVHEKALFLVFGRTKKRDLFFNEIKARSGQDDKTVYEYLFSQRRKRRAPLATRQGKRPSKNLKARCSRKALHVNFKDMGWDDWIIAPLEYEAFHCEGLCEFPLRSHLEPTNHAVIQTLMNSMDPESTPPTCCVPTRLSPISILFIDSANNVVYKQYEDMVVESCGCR
The experiment in a line: SPR; Biacore T200, 25 °C; GDF5 amine-coupled to a CM5 chip (830, 970 or 1370 RU); RGMBND variants or BSA as analytes; 0.5 M NaCl, 20 mM HEPES pH 7.4, 0.05% (v/v) Tween 20; Kd from the dose-dependency of equilibrium binding, 1:1 Langmuir isotherm. The settings on record: both partners purified.

Experiment [5] deals with T1, growth differentiation factor 5 (GDF5), …. Description: SEC-MALS; RGMBND–GDF5 complex, 1 mg/mL, Superdex 200 HR 10/30, 0.5 M NaCl, 20 mM Hepes pH 7.5, 21 °C. The settings on record: both partners purified.
In experiment [6] the target is T2, bone morphogenetic protein 2 (BMP2). Description: SPR; Biacore T200, 25 °C; GDF5 and BMP2 covalently linked to a CM5 chip by primary amine coupling, RGMs as analytes; 0.5 M NaCl, 20 mM Hepes pH 7.4, 0.05% Tween 20; equilibrium binding, 1:1 Langmuir isotherm; apparent affinity. To be noted: both partners purified.
In experiment [7] the target is T4, GDF5 variant Tyr487Lys/Gln489Asp (UniProt P43026 28-501, Tyr487Lys | Gln489Asp).
T4 construct: GDF5 with Tyr487Lys and Gln489Asp
T4 sequence (looked up): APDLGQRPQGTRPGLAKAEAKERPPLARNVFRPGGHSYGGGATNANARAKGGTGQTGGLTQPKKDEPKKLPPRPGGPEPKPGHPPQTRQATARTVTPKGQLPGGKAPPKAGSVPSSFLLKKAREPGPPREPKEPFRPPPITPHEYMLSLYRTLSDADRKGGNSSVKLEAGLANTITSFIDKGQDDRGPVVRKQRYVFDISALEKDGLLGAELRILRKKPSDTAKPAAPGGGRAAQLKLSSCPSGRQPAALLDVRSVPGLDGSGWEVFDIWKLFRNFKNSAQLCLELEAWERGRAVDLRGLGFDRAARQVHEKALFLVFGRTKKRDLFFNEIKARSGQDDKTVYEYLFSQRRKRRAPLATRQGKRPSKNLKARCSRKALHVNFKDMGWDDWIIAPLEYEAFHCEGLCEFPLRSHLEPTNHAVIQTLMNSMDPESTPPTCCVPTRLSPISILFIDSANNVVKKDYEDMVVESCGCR
The experiment in a line: SEC-MALS; RGMBND–GDF5(Tyr487Lys/Gln489Asp)–ActR2bECD complex, 1 mg/mL, Superdex 200 HR 10/30, 0.5 M NaCl, 20 mM Hepes pH 7.4, 21 °C. To be noted: both partners purified. For orientation: Size exclusion chromatography separates by hydrodynamic size, large species first.

T2 sequence (P12643 283-396): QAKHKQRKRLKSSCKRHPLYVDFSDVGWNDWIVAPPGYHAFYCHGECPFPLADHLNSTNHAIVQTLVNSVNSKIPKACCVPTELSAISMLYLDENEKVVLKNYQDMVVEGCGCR

B1: N-terminal domain of human RGMA (RGMAND, Ser46–Ser139) (domain or fragment)
chain: ETGSPCKILKCNSEFWSATSGSHAPASDDTPEFCAALRSYALCTRRTARTCRGDLAYHSAVHGIEDLMSQHNCSKDGPTSQPRLRTLPPAGDSQERS
modifications: Asn-linked glycans cut down to one N-acetylglucosamine for crystallization; kept fully glycosylated for binding assays
notes: Glu-Thr-Gly from the pHLsec vector, after the N-terminal secretion signal; human RGMA, N-terminal domain, residues Ser46–Ser139 of UniProtKB Q96B86-1; source: HEK-293T, transient transfection, secreted, purified (IMAC, SEC)
In the case of B1, the Kd in experiment [1] came to 16.7 µM.

B2: N-terminal domain of human RGMC (RGMCND, Gln36–Pro145) (domain or fragment)
chain: ETGQCKILRCNAEYVSSTLSLRGGGSSGALRGGGGGGRGGGVGSGGLCRALRSYALCTRRTARTCRGDLAFHSAVHGIEDLMIQHNCSRQGPTAPPPPRGPALPGAGSGLPAP
modifications: Asn-linked glycans cut down to one N-acetylglucosamine for crystallization; kept fully glycosylated for binding assays
notes: Glu-Thr-Gly from the pHLsec vector, after the N-terminal secretion signal; human RGMC (Hemojuvelin), N-terminal domain, residues Gln36–Pro145 of UniProtKB Q6ZVN8-1; also called Hemojuvelin; HFE2; source: HEK-293T, transient transfection, secreted, purified (IMAC, SEC)
On to B2, for which the Kd in experiment [1] is 3.9 µM.

B3: RGMCND Gly99Arg (domain or fragment, human)
chain: ETGQCKILRCNAEYVSSTLSLRGGGSSGALRGGGGGGRGGGVGSGGLCRALRSYALCTRRTARTCRRDLAFHSAVHGIEDLMIQHNCSRQGPTAPPPPRGPALPGAGSGLPAP
notes: Glu-Thr-Gly from the pHLsec vector, after the N-terminal secretion signal; human RGMC, N-terminal domain, residues Gln36–Pro145 of UniProtKB Q6ZVN8-1, with Gly99Arg; Made by site-directed mutagenesis of the RGMCND construct; also called RGMC Gly99Arg; juvenile hemochromatosis-causing mutation; source: HEK-293T, transient transfection, secreted, purified (IMAC, SEC in SPR running buffer)
B3: in experiment [1], the Kd was more than 20 µM.

B4: extracellular domain of human RGMB (RGMBECD, Gln53–Ser411) (domain or fragment)
chain: ETGQCRIQKCTTDFVSLTSHLNSAVDGFDSEFCKALRAYAGCTQRTSKACRGNLVYHSAVLGISDLMSQRNCSKDGPTSSTNPEVTHDPCNYHSHAGAREHRRGDQNPPSYLFCGLFGDPHLRTFKDNFQTCKVEGAWPLIDNNYLSVQVTNVPVVPGSSATATNKITIIFKAHHGCTDQKVYQAVTDDLPAAFVDGTTSGGDSDAKSLRIVERESGHYVEMHARYIGTTVFVRQVGRYLTLAIRMPEDLAMSYEESQDLQLCVNGCPLSERIDDGQGQVSAILGHSLPRTSLVQAWPGYTLETANTQCHEKMPVKDIYFQSCVFDLLTTGDANFTAAAHSALEDVEALHPRKERWHIFPSSGTKHHHHHH
modifications: Asn-linked glycans cut down to one N-acetylglucosamine for crystallization
With B4, the Kd in experiment [1] is 8.8 µM. The “GDF5 (30 nM) BMP-responsive luciferase reporter in LLC-PK1 cells expressing full-length membrane-anchored RGMB” value in experiment [2] was approximately 3 fold.

B5: RGMBND Gly101Arg (domain or fragment)
chain: QCRIQKCTTDFVSLTSHLNSAVDGFDSEFCKALRAYAGCTQRTSKACRRNLVYHSAVLGISDLMSQRNCSKDGPTSSTNPEVTH
As to B5, the Kd in experiment [1] is more than 150 µM.

B6: soluble RGMC extracellular domain (RGMCECD) for the ProteOn SPR studies (domain or fragment, human, UniProt Q6ZVN8 36-400, looked up)
chain: QCKILRCNAEYVSSTLSLRGGGSSGALRGGGGGGRGGGVGSGGLCRALRSYALCTRRTARTCRGDLAFHSAVHGIEDLMIQHNCSRQGPTAPPPPRGPALPGAGSGLPAPDPCDYEGRFSRLHGRPPGFLHCASFGDPHVRSFHHHFHTCRVQGAWPLLDNDFLFVQATSSPMALGANATATRKLTIIFKNMQECIDQKVYQAEVDNLPVAFEDGSINGGDRPGGSSLSIQTANPGNHVEIQAAYIGTTIIIRQTAGQLSFSIKVAEDVAMAFSAEQDLQLCVGGCPPSQRLSRSERNRRGAITIDTARRLCKEGLPVEDAYFHSCVFDVLISGDPNFTVAAQAALEDARAFLPDLEKLHLFPSD
With B6, the “BMP2 (3 nM) BMP-responsive luciferase reporter in LLC-PK1 cells expressing full-length membrane-anchored RGMC” value in experiment [3] was approximately 3 fold.

B7: N-terminal domain of human RGMB (RGMBND, Gln53-His136) (domain or fragment)
chain: ETGQCRIQKCTTDFVSLTSHLNSAVDGFDSEFCKALRAYAGCTQRTSKACRGNLVYHSAVLGISDLMSQRNCSKDGPTSSTNPEVTHGTKHHHHHH
Turning to B7, in experiment [4], the Kd was 1.8 µM.

B8: N-terminal domain of human RGMB (RGMBND, Gln53–His136) (domain or fragment)
chain: ETGQCRIQKCTTDFVSLTSHLNSAVDGFDSEFCKALRAYAGCTQRTSKACRGNLVYHSAVLGISDLMSQRNCSKDGPTSSTNPEVTHGTKHHHHHH
modifications: N-linked glycan on Asn120 (cut down to one N-acetylglucosamine for crystallization; kept fully glycosylated for binding assays); methylated for crystal form 2
A word on the stoichiometry N: it is a count of units in the complex or per binding partner. B8: the figures for the “stoichiometry N” value in experiment [5] and in experiment [7] were 2 RGMB per disulfide-linked GDF5 dimer (2:2 by chains) and 2 RGMBND per GDF5 dimer (2:2:2 by chains), respectively. The results for the Kd in experiment [6] and in experiment [1] were 20.1 µM and 2.7 µM, respectively.

B9: RGMBND His106Leu (domain or fragment)
chain: ETGQCRIQKCTTDFVSLTSHLNSAVDGFDSEFCKALRAYAGCTQRTSKACRGNLVYLSAVLGISDLMSQRNCSKDGPTSSTNPEVTHGTKHHHHHH
Molecule B9 returned a Kd in experiment [4] of more than 200 µM.

B10: RGMBND His106Asn (domain or fragment)
chain: ETGQCRIQKCTTDFVSLTSHLNSAVDGFDSEFCKALRAYAGCTQRTSKACRGNLVYNSAVLGISDLMSQRNCSKDGPTSSTNPEVTHGTKHHHHHH
Turning to B10, the Kd in experiment [4] was more than 150 µM.
